Laboratory results: article PMC2715239
Values joined by “and” are separate entries in the source; they are usually repeats but may differ in a detail not shown here. Identical values can stand only once. Each block holds one substance with its values, some of them ahead of it.

Assays:
Assay in all cases: SEC-MALS
[1] = target: BcMCM C200 truncation (Bacillus cereus)
[2] = target: BcMCM N399 truncation (Bacillus cereus)
[3] = target: full-length Bacillus cereus MCM (BcMCM) (Bacillus cereus)

- stoichiometry N [1]: 2 and 3 and 4
Substance: BcMCM C200 truncation (domain or fragment)

- stoichiometry N [2]: 2 and 4
Substance: BcMCM N399 truncation (domain or fragment)

- stoichiometry N [3]: 2
Substance: full-length Bacillus cereus MCM (BcMCM) (enzyme)
